Test results from the DeepSol protein solubility set.

assay: soluble on expression in E. coli; label from the status in PepcDB or PDB records

Row | Sequence | soluble on expression in E. coli
1 | SLEGQLEAGEPKEGTHPEDPCPGAGAAMEKTPAAAEVPREDGNAEEMPSLQQQITSLHQELGRQQSLWADIHRKLQSHMDALRKQNRELREELRGLQRQQWEAGKKPAASPHAGRESHTLALEPAFGKISPLSADEETTPKYAGRKSQSATLLGQRWSSNHLAPPKPMSLKTERINSGKTPPQEDREKSPPGRRQDRSPAPTGRPTPGAERREVSEDGKIMHPSSRSPQNSGGRKSPVQASQATTLQEQTAAARGADRSSSVLGSSEGGFLSRVQADEFASSSPDSAERQNLPVNPPSSLEIAQAMDTKMKKEEVQEEKRHPKGKADDCRRSGFPSEFPGALHAAPSRQDMGP | soluble
2 | SLESYLRLSEVDKQILHSHALMLDGLGNFFGSTHEVILHSLENLESSAIKVINGHFSNRKEGAPITDMALKMLSQVESEHDYAVKPYYNKNQKGVILKSSTIPVIGENDRIIGLICINMHLEMPLIDYLQDLLPSGQQNDMSQELKNSEHFSDNIDELITTSLTKVKQAVESDPNVSHLNQNKEIVIRLYDQGIFNLKDSVIKIADRLGISKNTIYLHIRNHKKEEA | soluble
3 | SLGAGQPLGGYAEDLEGRQADLPKYSRANVRIVFAAVFPESNVYQGGEGYPTPSSSRLLLLDQVKTYYALSSIHGVEIIESWRSAQEVLEAPRWRLGLLLHLEGADALADILDLELLHRLGFRSLGLTWNHDNRWAASCKTRRDYGLTQSGEDLVKKAAELGVIIDLAHASDKTVADAASASPKPVIVSHANFRWKVDSPRNVGEEAVEAVVSKGGVIGYSLISTLITRGRHPTLHDVASQMAEFVEVYGHRHLAIGTDYHGLLDIRPPTGLESIDRLPRLLEALADAGLSDRQIEAIAYGNIARVIREVLPES | not soluble
4 | SLGFIMKLTKTALCTALFATFTFSANAQTYPDLPVGIKGGTGALIGDTVYVGLGSGGDKFYTLDLKDPSAQWKEIATFPGGERNQPVAAAVDGKLYVFGGLQKNEKGELQLVNDAYRYNPSDNTWMKLPTRSPRGLVGSSGASHGDKVYILGGSNLSIFNGFFQDTVAAGEDKAKKDEIAAAYFDQRPEDYFFTTELLSYEPSTNKWRNEGRIPFSGRAGAAFTIQGNELVVVNGEIKPGLRTAETHQGKFTAKGVQWKNLPDLPAPKGKSQDGLAGALSGYSNGHYLVTGGANFPGSIKQFKEGKLHAHKGLSKAWHNEVYTLNNGKWRIVGELPMNIGYGFSVSYNNKVLLIGGETDGGKALTSVKAISYDGKKLTIE | not soluble
5 | SLGMIKNSLFGSVETWPWQVLSKGDKEEVAYEERACEGGKFATVEVTDKPVDEALREAMPKVAKYAGGTNDKGIGMGMTVPISFAVFPNEDGSLQKKLKVWFRIPNQFQSDPPAPSDKSVKIEEREGITVYSMQFGGYAKEADYVAQATRLRAALEGTATYRGDIYFCTGYDPPMKPYGRRNEIWLLKT | soluble
6 | SLIENSHVKKDDIWPSGGQMTVKDLTAKYTEGGNAILENISFSISPGQRVGLLGRTGSGKSTLLSAFLRLLNTEGEIQIDGVSWDSITLEQWRKAFGVIPQKVFIFSGTFRKNLDPYEQWSDQEIWKVADEVGLRSVIEQFPGKLDFVLVDGGCVLSHGHKQLMCLARSVLSKAKILLLDEPSAHLDPVTYQIIRRTLKQAFADCTVILCEARIEAMLECDQFLVIEENKVRQYDSIQKLLNERSDFRQAISPSDGPSAQLEKELQALEKENAQLEWELQALEKELAQ | soluble
7 | SLKKWLVTIAALWLAGCSSGEINKNYYQLPVVQSGTQSTASQGNRLLWVEQVAVPDYLAGNGVVYQTSDVKYVIANNTLWASPLDQQLRNTLVANLSTQLPGWVVASQPLGSAQDTLNVTVTEFNGRYDGKVIVSGEWLLNHQGQLIKRPFRLEGMQTQDGYDEMVKVLASVWSQEAASIAQEIKRLP | soluble
8 | SLKQPVFKKVLQVGIVVHDLEKAVRTYADDFGIGPWQFYNLDKSNMHDMKMRGEKAEFSMKVAFTDLGGVQLELIEPLDESIYSDFLREHGEGIHHIACGVRNFEETMASMQKKDIKVLLEGTTSAGMGYVYLDTTDALSCITEIYRIPENLQYIPPDKTYEG | soluble
9 | SLLGQKSQRYKAEEGLQAQGEAPGLMDVQIPTAEEQKAASSSSTLIMGTLEEVTDSGSPSPPQSPEGASSSLTVTDSTLWSQSDEGSSSNEEEGPSTSPDPAHLESLFREALDEKVAELVRFLLRKYQIKEPVTKAEMLESVIKNYKNHFPDIFSKASECMQVIFGIDVKEVDPAGHSYILVTCLGLSYDGLLGDDQSTPKTGLLIIVLGMILMEGSRAPEEAIWEALSVMGLYDGREHSVYWKLRKLLTQEWVQENYLEYRQAPGSDPVRYEFLWGPRALAETSYVKVLEHVVRVNARVRISYPSLHEEALGEEKGV | soluble
10 | SLLLCDIGNSNANFLDDNKYFTLSIDQFLEFKNEQKIFYINVNEHLKEHLKNQKKFINLEPYFLFDTIYQGLGIDRIAACYTIEDGVVVDAGSAITIDIISNSIHLGGFILPGIANYKKIYSHISPRLKSEFNTQVSLDAFPQKTMDALSYGVFKGIYLLIKDAAQNKKLYFTGGDGQFLANYFDHAIYDKLLIFRGMKKIIKENPNLLY | soluble
11 | SLLLRLCRWLRLLGYPTVAAHEVVDPTKVEDEDEVLVEFCREHDALLITRDRQLARRARAVLITADSVPEQIAEVLEFLGDEAFLDPDESRCPECNARVRRVTAENPGPFEVTWECPECRRKYWVGGHWRDMEETIDRVKKALRRVQRGHLRG | not soluble
12 | SLMDVKCETPNCPFFMSVNTQPLCHECSERRQKNQN | soluble
13 | SLPSAQAPSLLNPTDDFAALGNIAWLWMNSPMHRDWPVHLLARNTLAPIQLGQYILLRCNDVPVAYCSWALMDADTELSYVMAPSSLGGNAWNCGDRLWIIDWIAPFSRDDNRALRRALAERHPDSVGRSLRVRRGGDTARVKEYRGRALDAAAARAQLDRYHAELIAGLRASNGGYAPR | soluble
14 | SLQIKKLFIALGIVLPLHMQGQNFLIKDAPEVIESYVNQFNREDNELYKQDIPNCGASDFLRKNIPFFECPDKELEKTYYFRWWTYRKHIKKTPDGFVITEFLPDVPWSGKYNTISCAANHHFYEGRWLRNAEILSDYASFWFSGSGNPRLYSFGAADAIYNYYLIHNDKMLLADLYPKLKDNFAKWEEEKRDSTGMFWQVDDRDGMEMSVSGHLSEGGRGYRPTINSYMYGEAVALAKIASIVDRDMEARTYQKKADKLKGIINRRLWDKQADFYKVIPLNGKMEFSYARELLGYIPWFYNIPPDNYSIAWKQLFDSKGFEAAYGPTTVEQRCPDFKISYEGHECQWNGPSWPYLTSMTLAAMANYFNSYDSPIITKKDYLSLLNIYSNSHRILSVNNDTICWIDENINPYTGDWISRTRLKSWKNGTWDDSKGGVERGKDYNHSSFCNLIISGLMGVRPQEDGSIIINPLVPDGCWDYFCLDNVYCQGKTITIIFDKKGKKYGRGKGFIVYVDDKCLSHTTRVQKVVIR | not soluble
15 | SLQKFNQIHSLFEHLPANYGEFSDFEQKIATLAQEMKVDLSLYEIDHLSIRVNTEDKAKSWLTTLLNYGKILSNNLVNGRAIYLIELEQPLLFMGQRVFIIELPFPKNKHYPVESWEHIEFVIPFLPNESSIEWVERVQQQFLWNQSGNLTIKVDEPKVDGEQLPNPSIAVSFADKSQNHVCIKVHPFNIKNIIKVSEG | soluble
16 | SLRAFRRATDVKTMAALDIQISVEAEGWSSEENLAAFATKVLNAAVDFLKREEEQPFPKMPVELSLVFTDDENIREINAEWRDKDKATNVLSFPAFPLEPGGMPGPMLGDIVIARETVEREALELDKSFEDHLTHLLVHGFLHLFGYDHMDEEEAEEMESLETRILAVLGLSDPYAGQE | not soluble
17 | SLREMKHLRSIEQEIKMSIPSQEVPTIEDVVEKQKESWKKQIAHRIEKGSNQKHLFEQMTEELMAEYDSKEVISALLQLNYAMDTAPEDAGYSFGETGGAKGMVRFFINVGRNVNMSPKILVEEIAELVGIPGKAIGRIDIFEKFTFVEVPEEVAPFVYEALRYSRINGARVNLEPAKPRPKRESQRRTFQK | soluble
18 | SLSEGYLSGLEYWNDIHWSCASYNEQVAGEKEEETNSVATLSYSSVDETQVRSLYVSCKSSGKFISSVHSRESQHSRSQRVTVLQTNPNPVFESPNLAAVEICRDASRETYLVPSSCKSICKNYNDLQIAGGQVMAINSVTTDFPSESSFEYGPLLKSSEIPLPMEDSISTQPSDFPQKPIQRYSSYWRITSIKEKSSLQMQNPISNAVLNEYLEQKVVELYKQYIMDTVFHDSSPTQILASELIMTSVDQISLQVSREKNLETSKARDIVFSRLLQLMSTEITEISTPSLHISQYSNVNP | not soluble
19 | SLSEKVIDMYKSENCGCCSLWGKAMEKDGFEVRTHIMNDQALSALKEKHAIPAGLRSCHTAVAGNLIIEGHVPATTIHKAMQSGSGIYGLATPGMPAGSPGMEMGARKEAYDVIAFSPDGSKKVFQRIE | soluble
20 | SLSKRLLSLASLALLFGCAQQPNDRAQQYQQQTFPHILNRADVVESNKPRDYTEFSKQSELVVQGSASMAKIYRPLYEQLNEWVLQSGDPATLAQFGIQAAQLGGGDKQGNVLFTGYFSPVIELRHQPDSVFKYPVYGLPKCNKNCPTRAEIYQGALDGQGLELGYAENLIDPFIMEVQGSGFVHFGDDDTLEYFAYAGKNNKAYVSIGKVLIERGLVEREKMSLKAIKDWVLANDEATVRELLEENPSFVFFKPSAAAPVKGSAGIPLLPMASVAGDRSILPMGTPILAEVPLLNADGTWSGAHQLRLLIVLDTGGAVKQNHLDLYHGMGPRAGLEAGHYKHFGRVWKLGLENSPTQAPWALPPEKQQ | not soluble
21 | SLSPAMSFLKSFPPPGSADGLRLQQPDTEAVLNGKGLGTGTLYIAESRLSWLDGSGLGFSLEYPTISLHAVSRDPNAYPQEHLYVMVNAKLGEESKEPLSDEDEEDNDDVEPISEFRFVPSDKSALEAMFTAMCECQALHPDPEDEDSDDYDGEEYDVEAHEQGQGDIPTFYTYEEGLSHLTAEGQATLERLEGMLSQSVSSQYNMAGVRTEDSVRNYEDGMEVETTPTVAGQFEDADVDH | soluble
22 | SLSTRGINFLHQWIANNVPETTKPDAVSISEITHKLFSDAKALGIKREDIDEEVESLTAHCSIGLCISTLA | not soluble
23 | SLTMNPLLTAEWGNVSEEKVEVVVDAGLGKALLVPASVESLSMQFNGVEVASLEEFDYSPTKSNARIVIGIDPNELVRALERYFESNQHGELSVEAKLGLFGLLHSTLTFSREFQQDILGQMDFKAESKPIFGGLLYTPSVEGTKVVWLGAENGVWNLKTYATLKNPNSFPIPVSNLEFEVSVNGIKVGVGNISQGVTIPAGGVATVPIDTEIYSEYLPTVLVAHIKNGEESSVEVNFYITVSSGGKSARINLTSERIVIQTDIMASINDALSGVSPRE | soluble
